Experimental data from paper doi:10.1101/2021.11.18.469126.
pKd: −log10 of the molar value.

Target: TASK3 (UniProt Q9NPC2)
Test: fluorescence polarisation

UniProt Q9NPC2, sequence (Q9NPC2 whole entry): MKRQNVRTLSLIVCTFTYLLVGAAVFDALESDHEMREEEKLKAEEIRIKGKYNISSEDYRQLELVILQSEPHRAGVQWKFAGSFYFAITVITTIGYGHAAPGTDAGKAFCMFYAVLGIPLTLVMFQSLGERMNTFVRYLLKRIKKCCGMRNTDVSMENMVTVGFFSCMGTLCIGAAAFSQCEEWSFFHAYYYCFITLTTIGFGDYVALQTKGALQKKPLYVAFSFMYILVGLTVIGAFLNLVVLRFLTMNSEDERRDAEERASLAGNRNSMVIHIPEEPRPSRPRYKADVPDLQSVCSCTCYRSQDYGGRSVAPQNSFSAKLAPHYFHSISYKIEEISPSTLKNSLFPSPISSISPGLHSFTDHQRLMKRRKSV

pKd: 5.39
cooperativity factor α (stabilisation of the pair by fusicoccin-A): 1340
Substance: 14-3-3 protein (from UniProt P31947 1-248) (natural protein)
